Results on 6 sequences are retold here after patent publication US20120204282.

Holding throughout (assay): cell_activity
Data set [1] concerns ZFN 23947 (synthetic construct). The conditions noted are these: Cel-I assay; as pair 22524/23947; pair also used for in vivo Q344X correction in mouse retina.
The subject of data set [2] is ZFN 23950 (synthetic construct). Conditions: Cel-I assay; as pair 23950/22529.
In data set [3] the test system is ZFN 23974 (synthetic construct). Conditions: Cel-I assay; as pair 23966/23974.
For data set [4], the system named is ZFN 23966 (synthetic construct). Conditions: Cel-I assay; as pair 23966/23974.
Data set [5] deals with ZFN 22529 (synthetic construct). The conditions noted are these: Cel-I assay; as pair 23950/22529.
For data set [6], the system named is ZFN 22524 (synthetic construct). Conditions: Cel-I assay; as pair 22524/23947; pair also used for in vivo Q344X correction in mouse retina.

“GTGACGATGAGGCCTCTGCTACCGTGTC (double strand) [RHO exon 5 site for 23947]” yielded an activity in data set [1] of 11.5 % NHEJ. In data set [2], “GCCAGGTAGTACTGTGGGTACTCGAAGG (double strand) [RHO exon 1 site for 23950]” registered an activity of 8.7 % NHEJ. Turning to “ATGTCCAGGCTGCTGCCTCGGTCCCATT (double strand) [RHO intron 1 site for 23974]”, the activity in data set [3] stood at 9.3 % NHEJ. Take “GGGGAGACAGGGCAAGGCTGGCAGAGAG (double strand) [RHO intron 1 site for 23966]”: the activity in data set [4] turned out to be 9.3 % NHEJ. Take “GAGCCATGGCAGTTCTCCATGCTGGCCG (double strand) [RHO exon 1 site for 22529]”: in data set [5], the activity amounted to 8.7 % NHEJ. “CAGTGGGTTCTTGCCGCAGCAGATGGTG (double strand) [RHO exon 5 site for 22524]” yielded an activity in data set [6] of 11.5 % NHEJ.
